The source of these data is publication PMC5102827 (Oncogene, 2016).

In experiment [1] the target is NOTCH3 on the surface of cells expressing NOTCH3 (Homo sapiens, UniProt Q9UM47). As to the kind of experiment: flow cytometry on cells. In general terms: Flow cytometry measures light scatter and fluorescence of single cells or particles in a stream.
The target of experiment [2] is recombinant NOTCH3 protein (Homo sapiens, UniProt Q9UM47). The experiment in a line: SPR.

B1: MOR20358 anti-NOTCH3 NRR antibody (antibody, V domains shown)
VH: QVQLVQSGAEVKKPGSSVKVSCKASGGTFRTYAMHWVRQAPGQGLEWMGGIVPYHGITDYAQKFQGRVTITADESTSTAYMELSSLRSEDTAVYYCARDDYSTYAFAYWGQGTLVTVSS
VL: DIQMTQSPSSLSASVGDRVTITCRASQSIASYLAWYQQKPGKAPKLLIYDASNLQSGVPSRFSGSGSGTDFTLTISSLQPEDFATYYCQQAYKTPYTFGQGTKVEIK
For the molecule B1, the EC50 (usually the midpoint of the concentration-response curve) in experiment [1] was found to be 140 pM. In addition, the Kd (usually the concentration at which binding is half-saturated) in experiment [2] is 600 pM.
